According to paper PMC3985815:

Tests used:
Test in all cases: purified protein
purified protein [1] = substrate: CNc1ncnc2c1ncn2[C@@H]1O[C@H](COP(=O)(O)O)[C@@H](OP(=O)(O)O)[C@H]1O; details: 25 mM HEPES, 250 mM KCl, pH 7.5, 30 °C
purified protein [2] = substrate: Cc1cn([C@H]2C[C@H](OP(=O)(O)O)[C@@H](COP(=O)(O)O)O2)c(=O)[nH]c1=O; details: 25 mM HEPES, 250 mM KCl, pH 7.5, 30 °C
purified protein [3] = substrate: Nc1ccn([C@H]2C[C@H](OP(=O)(O)O)[C@@H](COP(=O)(O)O)O2)c(=O)n1; details: 25 mM HEPES, 250 mM KCl, pH 7.5, 30 °C
purified protein [4] = substrate: Nc1nc2c(ncn2[C@H]2C[C@H](OP(=O)(O)O)[C@@H](COP(=O)(O)O)O2)c(=O)[nH]1; details: 25 mM HEPES, 250 mM KCl, pH 7.5, 30 °C
purified protein [5] = substrate: Nc1ncnc2c1ncn2[C@@H]1O[C@H](COP(=O)(O)O)[C@@H](OP(=O)(O)O)[C@H]1O; details: 25 mM HEPES, 250 mM KCl, pH 7.5, 30 °C
purified protein [6] = substrate: Nc1ncnc2c1ncn2[C@@H]1O[C@H](COP(=O)(O)O[C@H]2[C@@H](O)[C@H](n3cnc4c(N)ncnc43)O[C@@H]2COP(=O)(O)O)[C@@H](O)[C@H]1O; details: 50 mM HEPES, 250 mM KCl, 5.0 mM MgCl2, pH 7.5
purified protein [7] = substrate: Nc1ncnc2c1ncn2[C@H]1C[C@H](OP(=O)(O)O)[C@@H](COP(=O)(O)O)O1; details: 25 mM HEPES, 250 mM KCl, pH 7.5, 30 °C
purified protein [8] = substrate: O=c1[nH]cnc2c1ncn2[C@H]1C[C@H](OP(=O)(O)O)[C@@H](COP(=O)(O)O)O1; details: 25 mM HEPES, 250 mM KCl, pH 7.5, 30 °C
purified protein [9] = substrate: O=c1ccn([C@H]2C[C@H](OP(=O)(O)O)[C@@H](COP(=O)(O)O)O2)c(=O)[nH]1; details: 25 mM HEPES, 250 mM KCl, pH 7.5, 30 °C

B1: Cv1693 (Chromobacterium violaceum ATCC 12472) (protein)
chain: MANIDLHFHSRTSDGALTPTEVIDRAAARAPALLALTDHDCTGGLAEAAAAAARRGIPFLNGVEVSVSWGRHTVHIVGLGIDPAEPALAAGLKSIREGRLERARQMGASLEAAGIAGCFDGAMRWCDNPEMISRTHFARHLVDSGAVKDMRTVFRKYLTPGKPGYVSHQWASLEDAVGWIVGAGGMAVIAHPGRYDMGRTLIERLILDFQAAGGQGIEVASGSHSLDDMHKFALHADRHGLYASSGSDFHAPGEGGRDVGHTEDLPPICRPIWRELEARILRPAD
In the case of B1, the Km (purified protein [1]) is reported as 5.4 ± 1.0 µM, the kcat (purified protein [1]) is reported as 11.6 ± 0.4 s⁻¹ and the kcat/Km (purified protein [1]) is reported as 2.1e+06 ± 400000 M⁻¹ s⁻¹. The Km (purified protein [2]) was 9.3 ± 1.0 µM, the kcat (purified protein [2]) was 3.3 ± 0.1 s⁻¹ and the kcat/Km (purified protein [2]) was 360000 ± 40000 M⁻¹ s⁻¹. The Km (purified protein [3]) was 26 ± 3 µM, the kcat (purified protein [3]) was 9.4 ± 0.3 s⁻¹ and the kcat/Km (purified protein [3]) was 360000 ± 50000 M⁻¹ s⁻¹. It also gave a Km (purified protein [4]) of 5.2 ± 0.4 µM, a kcat (purified protein [4]) of 4.2 ± 0.1 s⁻¹ and a kcat/Km (purified protein [4]) of 790000 ± 60000 M⁻¹ s⁻¹. The Km (purified protein [5]) was 15.5 ± 2.4 µM, the kcat (purified protein [5]) was 22 ± 1 s⁻¹ and the kcat/Km (purified protein [5]) was 1.4e+06 ± 200000 M⁻¹ s⁻¹. For the same protein, the Km (purified protein [6]) was 1.6 ± 0.2 µM, the kcat (purified protein [6]) was 0.05 ± 0.01 s⁻¹ and the kcat/Km (purified protein [6]) was 32000 ± 3000 M⁻¹ s⁻¹. The Km (purified protein [7]) was 10.2 ± 0.9 µM, the kcat (purified protein [7]) was 7.1 ± 0.2 s⁻¹ and the kcat/Km (purified protein [7]) was 700000 ± 60000 M⁻¹ s⁻¹. For the same protein, the Km (purified protein [8]) was 22 ± 3 µM, the kcat (purified protein [8]) was 4.3 ± 0.2 s⁻¹ and the kcat/Km (purified protein [8]) was 190000 ± 30000 M⁻¹ s⁻¹. The Km (purified protein [9]) was 29 ± 4 µM, the kcat (purified protein [9]) was 5.2 ± 0.2 s⁻¹ and the kcat/Km (purified protein [9]) was 180000 ± 20000 M⁻¹ s⁻¹.
